In US20200308267A1 (Boehringer Ingelheim, published 2020):
Residue numbers refer to the chain shown, from its start.

B1: VEGFBII010 (VHH, not shown: small tags and cut ends)
chain: EVQLVESGGGLVQTGDSLRLSCEVSGRTFSSYSMGWFRQAQGKEREFVVAISKGGYKYDSVSLEGRFTISKDNAKNTVYLQINSLKPEDTAVYYCASSRAYGSSRLRLADTYEYWGQGTQVTVSSGGGGSGGGGSGGGGSGGGGSGGGGSGGGGSGGGGSEVQLVESGGGLVQTGDSLRLSCEVSGRTFSSYSMGWFRQAQGKEREFVVAISKGGYKYDSVSLEGRFTISKDNAKNTVYLQINSLKPEDTAVYYCASSRAYGSSRLRLADTYEYWGQGTQVTVSS
B2: VEGFBII021 (VHH, not shown: small tags and cut ends)
chain: EVQLVESGGGLVQTGDSLRLSCEVSGRTFSSYSMGWFRQAQGKEREFVVAISKGGYKYDSVSLEGRFTISKDNAKNTVYLQINSLKPEDTAVYYCASSRAYGSSRLRLADTYEYWGQGTQVTVSSGGGGSGGGGSGGGGSGGGGSGGGGSGGGGSGGGGSGGGGSEVQLVESGGGLVQPGGSLRLSCVASGIRFMSMAWYRQAPGKHRELVARISSGGTTAYVDSVKGRFTISRDNSKNTVYLQMNSLKAEDTAVYYCNTFSSRPNPWGAGTQVTVSS
B3: VEGFBII23A03 (VHH, not shown: small tags and cut ends)
VHH: EVQLVESGGGLVQPGDSLKLSCVASGRTFSSYSMGWFRQAQGKEREFVVAISSGGYIYDSVSLQGRFTISRDNTKNTVYLQTPSLKPEDTAVYYCAASRAYGSSRLRLADTYDYWGQGTQVTVSS
B4: VEGFBII27D08 (VHH, not shown: small tags and cut ends)
VHH: B3 VHH with P14T, K19R, V23A, I57K, Q64E, K75Q, T82I, P83N, S104G
B5: VEGFBII41B05 (VHH, not shown: small tags and cut ends)
VHH: B3 VHH with D16G, K19R, V23A, A24F, Y56F, S60A, Q64E
B6: VEGFBII23D11 (VHH, not shown: small tags and cut ends)
VHH: B3 VHH with K19R, V23A, A24F, G35A, Y56F, S60A, Q64E
B7: VEGFBII61A01 (VHH, not shown: small tags and cut ends)
VHH: B3 VHH with P14A, D16G, K19R, V23A, A24F, I57K, S60A, Q64E, G102A
B8: VEGFBII22A11 (VHH, not shown: small tags and cut ends)
VHH: B3 VHH with V23A, A24F, G35A, Y56F, S60A, Q64E
B9: VEGFBII40F02 (VHH, not shown: small tags and cut ends)
VHH: B3 VHH with V23A, A24F, G35A, Y56F, S60A, Q64E, D89G
B10: VEGFBII41G03 (VHH, not shown: small tags and cut ends)
VHH: B3 VHH with V23A, A24F, G35A, Y56F, S60A, Q64E, D72E
B11: VEGFBII23E05 (VHH, not shown: small tags and cut ends)
VHH: B3 VHH with G8E, F29S
B12: VEGFBII23A08 (VHH, not shown: small tags and cut ends)
VHH: B3 VHH with P14T, K19R, S53N, I57K, Q64E, T82I, P83N
B13: VEGFBII42F11 (VHH, not shown: small tags and cut ends)
VHH: B3 VHH with F29S, M34V
B14: VEGFBII27G07 (VHH, not shown: small tags and cut ends)
VHH: B3 VHH with F29S, K43Q
B15: VEGFBII30C09 (VHH, not shown: small tags and cut ends)
VHH: B3 VHH with V23I, F29S, K43Q
B16: VEGFBII62F02 (VHH, not shown: small tags and cut ends)
VHH: B3 VHH with V23A, A24F, S52A, S60A, Q64E, N76D
B17: VEGFBII22E04 (VHH, not shown: small tags and cut ends)
VHH: B3 VHH with F29S, Y56S, G102A
B18: VEGFBII42D05 (VHH, not shown: small tags and cut ends)
VHH: EVQLVESGGGLVQPGDSLKLSCAFSGRTFSSYSMGWFRQAQGKEREFVVAISSSGGYIYDSVSLEGRFTISRDNTKNTVYLQTPSLKPEDTAVYYCAASRAYGSSRLRLADTYDYWGQGTQVTVSS
B19: VEGFBII62D10 (VHH, not shown: small tags and cut ends)
VHH: B18 VHH with G8E, P14A, K19R, F24A, G56N, I58K, T83I, P84N, A110G
B20: VEGFBII62A09 (VHH, not shown: small tags and cut ends)
VHH: B18 VHH with G10D, F24A
B21: VEGFBII23G03 (VHH, not shown: small tags and cut ends)
VHH: B18 VHH with S30G, T75S, A110P, D111G
B22: VEGFBII23F11 (VHH, not shown: small tags and cut ends)
VHH: B18 VHH with S54G, V93D
B23: VEGFBII56E11 (VHH, not shown: small tags and cut ends)
VHH: B18 VHH with T91A, V93D
B24: VEGFBII22A10 (VHH, not shown: small tags and cut ends)
VHH: B18 VHH with V93D
B25: VEGFBII22B07 (VHH, not shown: small tags and cut ends)
VHH: B18 VHH with P14A, K19R, F24A, G56N, I58K, T83I, P84N, A110G
B26: VEGFBII23F05 (VHH, not shown: small tags and cut ends)
VHH: B18 VHH with P14A, K19R, F24A, G56N, I58K, T83I, P84N, E89K, A110G
B27: VEGFBII40G07 (VHH, not shown: small tags and cut ends)
VHH: B18 VHH with T78A, V93D
B28: VEGFBII30E07 (VHH, not shown: small tags and cut ends)
VHH: B18 VHH with P14A, K19R, F24A, G56N, I58K, T83I, P84N, A110G, Q121R
B29: VEGFBII42A05 (VHH, not shown: small tags and cut ends)
VHH: B18 VHH with T83M, V93D
B30: VEGFBII60A09 (VHH, not shown: small tags and cut ends)
VHH: B18 VHH with K76R, V93D
B31: VEGFBII22B06 (VHH, not shown: small tags and cut ends)
VHH: B18 VHH with F24A
B32: VEGFBII40H10 (VHH, not shown: small tags and cut ends)
VHH: B18 VHH with V5M, V93D
B33: VEGFBII39E02 (VHH, not shown: small tags and cut ends)
VHH: B18 VHH with S17P, V93D
B34: VEGFBII23A09 (VHH, not shown: small tags and cut ends)
VHH: B18 VHH with S30G, T75S, A110P
B35: VEGFBII31C07 (VHH, not shown: small tags and cut ends)
VHH: B18 VHH with P14T, K19R, F24A, R27G, V93D
B36: VEGFBII39G04 (VHH, not shown: small tags and cut ends)
VHH: B18 VHH with Q3P, P14A, K19R, F24A, G56N, I58K, V62A, T83I, P84N, A110G

molecular target: VEGF; assay: cell-based or functional assay
Sequence (P15692 whole entry): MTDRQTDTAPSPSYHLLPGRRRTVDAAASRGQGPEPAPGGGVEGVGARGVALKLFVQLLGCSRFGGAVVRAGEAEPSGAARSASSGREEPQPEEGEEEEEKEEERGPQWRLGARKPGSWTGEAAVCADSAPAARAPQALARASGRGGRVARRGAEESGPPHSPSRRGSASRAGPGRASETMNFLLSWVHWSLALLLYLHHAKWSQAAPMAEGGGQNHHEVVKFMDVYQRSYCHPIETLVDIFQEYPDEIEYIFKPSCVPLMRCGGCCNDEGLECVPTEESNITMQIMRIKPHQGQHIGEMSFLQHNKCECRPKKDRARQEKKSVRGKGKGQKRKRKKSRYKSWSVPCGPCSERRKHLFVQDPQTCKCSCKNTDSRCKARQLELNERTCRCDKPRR

Row | Binder | HUVEC Erk phosphorylation, % inhibition [%] | HUVEC Erk phosphorylation, IC50 [nM]
1 | B1 | 92 | 0.19
2 | B2 | 103 | 0.21

molecular target: VEGF; assay: cell-based or functional assay; remark: another data set of the same source

Row | Binder | HUVEC proliferation, % inhibition [%] | HUVEC proliferation, IC50 [nM]
3 | B1 | 95 | 0.22
4 | B2 | 98 | 0.4

molecular target: T1, recombinant human VEGF165 (human, UniProt P15692-4 27-191, biotinylated (Sulfo-NHS-LC-Biotin) in the competition assays); assay: Biacore, periplasmic extract, VEGF165 chip, two phase decay fit; parameters: unit not given here
T1 construct: also called hVEGF165; rhVEGF165
Protocol: Dissociation rates of inhibitory VHHs are analyzed on Biacore (Biacore T100 instrument, GE Healthcare). HBS-EP+ buffer is used as running buffer and experiments are performed at 25° C. […] After immobilization, surfaces are deactivated with 10 min injection of 1 M ethanolamine pH8.5. A reference surface is activated and deactivated with respectively EDC/NHS and ethanolamine. Periplasmic extracts of VHHs are injected at a 10-fold dilution in running buffer for 2 min at 45 μl/min and allowed to dissociate for 10 or 15 min. Between different samples, the surfaces are regenerated with regeneration buffer. Data are double referenced by subtraction of the curves on the reference channel and of a blank running buffer injection. […] is evaluated by fitting a two phase decay model in the Biacore T100 Evaluation software v2.0.1.

T1 sequence (P15692 other isoform, or with tags, fused parts or gaps limits assumed): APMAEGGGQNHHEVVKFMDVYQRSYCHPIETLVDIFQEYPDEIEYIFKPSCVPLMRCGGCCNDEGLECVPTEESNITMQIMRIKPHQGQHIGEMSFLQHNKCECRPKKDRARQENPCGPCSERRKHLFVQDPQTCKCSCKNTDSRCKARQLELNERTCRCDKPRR

Row | Binder | kd(fast) | kd(slow)
5 | B3 | 0.015 | 3.2e-05
6 | B4 | 0.024 | 8.1e-05
7 | B5 | 0.019 | 0.00012
8 | B6 | 0.019 | 5.8e-05
9 | B7 | 0.0074 | 0.00017
10 | B8 | 0.022 | 4.7e-05
11 | B9 | 0.012 | 9.8e-05
12 | B10 | 0.012 | 0.00027
13 | B11 | 0.015 | 6.9e-05
14 | B12 | 0.013 | 5e-05
15 | B13 | 0.0091 | 0.0005
16 | B14 | 0.013 | 3.8e-05
17 | B15 | 0.015 | 7.6e-05
18 | B16 | 0.014 | 8.5e-05
19 | B17 | 0.018 | 0.00011
20 | B18 | 0.033 | 0.00015
21 | B19 | 0.019 | 0.00016

Row | Binder | kd(fast) | kd(slow)
22 | B20 | 0.041 | 0.00011
23 | B21 | 0.028 | 8.6e-05
24 | B22 | 0.027 | 0.00013
25 | B23 | 0.033 | 0.00014
26 | B24 | 0.037 | 4e-05
27 | B25 | 0.015 | 7.8e-05
28 | B26 | 0.016 | 0.00013
29 | B27 | 0.018 | 0.00032
30 | B28 | 0.017 | 0.00013
31 | B29 | 0.016 | 0.00034
32 | B30 | 0.037 | 9.3e-05
33 | B31 | 0.038 | 9e-05
34 | B32 | 0.014 | 0.00029
35 | B33 | 0.019 | 0.00024
36 | B34 | 0.027 | 4.6e-05
37 | B35 | 0.037 | 0.00015
38 | B36 | 0.014 | 0.00074
